In the supplement of paper PMC9732359:
± gives the uncertainty stated by the source.

Experiment: protein stability index of a GFP-peptide fusion (yeast GPS) (PSI 1-4); higher = more stable; sorted into four equal gates, so the index is relative within each strain
In short: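 Yeast carrying a pooled library were grown to mid-log phase in leucine-free medium. Each library plasmid expresses Cherry and has a tiled 17-residue yeast protein peptide fused downstream of GFP. Cells were sorted into four equal gates by GFP/Cherry ratio, and plasmids from each gate were PCR-amplified, Illumina-sequenced and assigned to strains by barcode. Summing, across gates, the read frequency times the gate number gave each peptide's protein stability index.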

Sequence | protein stability index (doa10∆) | protein stability index (pdr5∆) | protein stability index (san1∆) | protein stability index (ubr1∆)
QSNINTNAPLRTLNIQP [YIL149C/MLP2] | 2.61 ± 0.11 | 2.36 ± 0.09 | 1.99 ± 0.086 | 2.19 ± 0.076
QSRLMSTSYHLNSTLES [MED6] | 2.79 ± 0.072 | 2.79 ± 0.054 | 1.97 ± 0.063 | 2.37 ± 0.062
QSSGKLKEYLDLVARTA [YDL116W/NUP84] | 2.63 ± 0.23 | 2.88 ± 0.16 | 3.01 ± 0.099 | 2.74 ± 0.15
QSVEEKVLEMKNLKDTA [YIL149C/MLP2] | 2.81 ± 0.25 | 2.58 ± 0.2 | – | 2.78 ± 0.089
QTENDLKDIEARIKEKA [RPT1] | 2.8 ± 0.13 | 2.91 ± 0.11 | 3.03 ± 0.099 | 3.37 ± 0.065
QTFGVDILAKLFSLEKP [SWI1] | 2.81 ± 0.063 | 2.52 ± 0.061 | 2.58 ± 0.058 | 2.51 ± 0.046
QTGIFVYQNNITPSAMK [RPB5] | 3.06 ± 0.091 | 2.55 ± 0.16 | 3.11 ± 0.075 | 3.36 ± 0.12
QTLLANSDHAKFTIEPG [SNF2] | 2.35 ± 0.059 | 2.33 ± 0.065 | 2.41 ± 0.1 | 2.37 ± 0.063
QTNIWEENWDDVEVDDD [SEM1] | 3.27 ± 0.16 | 3.28 ± 0.09 | 3.37 ± 0.082 | 3.38 ± 0.13
QTQQDLPKVRYNVEKVK [NSL1] | 2.7 ± 0.074 | 2.57 ± 0.063 | 2.75 ± 0.054 | 2.33 ± 0.079
QTTEGYDPKDALKNACN [RPB11] | 3.28 ± 0.26 | 3.28 ± 0.14 | 3.26 ± 0.082 | 3.35 ± 0.15
QVDKVTKEKVNGASVPI [RPL26A] | 3.1 ± 0.077 | 3.3 ± 0.11 | 2.86 ± 0.097 | 3.08 ± 0.046
QVLKCKESWDPNTTKTK [YGR119C/NUP57] | 3.52 ± 0.21 | 3.41 ± 0.076 | 3.63 ± 0.089 | 3.55 ± 0.15
QVLVCTATLAWGVNLPA [BRR2] | 1.53 ± 0.11 | 1.91 ± 0.088 | 2.1 ± 0.089 | 2.12 ± 0.059
QVMEEKLDENNAQLSCI [PUP2] | 3.31 ± 0.086 | 2.69 ± 0.27 | 2.86 ± 0.19 | 3.17 ± 0.17
QVPSSLIVRAKNHTHNL [RRP4] | 2.56 ± 0.076 | 2.89 ± 0.06 | 2.67 ± 0.072 | 2.87 ± 0.055
QVRKKQIETINFLRLPA [YDL116W/NUP84] | 3.07 ± 0.11 | 2.89 ± 0.097 | 2.86 ± 0.07 | 2.81 ± 0.11
QWFLQYQNQFVEFCRNI [YML103C/NUP188] | 2.48 ± 0.17 | 1.86 ± 0.12 | 1.89 ± 0.17 | 2.24 ± 0.1
QWGKYQTFGVDILAKLF [SWI1] | 2.25 ± 0.079 | 2.54 ± 0.063 | 2.43 ± 0.062 | 2.27 ± 0.053
QYTKDEQFYTKDIIDPK [RPN2] | 3.53 ± 0.13 | 3.24 ± 0.094 | 2.78 ± 0.15 | 3.29 ± 0.065

Sequence | protein stability index (doa10∆) | protein stability index (pdr5∆) | protein stability index (san1∆) | protein stability index (ubr1∆)
QYVTQIEQEKQEQQEQD [PRE6] | 2.23 ± 0.064 | 1.93 ± 0.057 | 2.85 ± 0.058 | 1.9 ± 0.045
QYYLSVLNQQLPIESQF [BRR2] | 2.28 ± 0.059 | 2.66 ± 0.059 | 2.65 ± 0.055 | 2.42 ± 0.039
QYYVTQHDKMVDKIFEK [SWI1] | 2.96 ± 0.1 | 2.42 ± 0.06 | 2.68 ± 0.068 | 2.84 ± 0.034
RAASAKIESSVESQFSA [RPS8A] | 3.11 ± 0.09 | 3.31 ± 0.083 | 2.53 ± 0.13 | 3.45 ± 0.14
RAEALNISGEFFRNKLK [RPL16B] | – | 2.4 ± 0.25 | – | 2.9 ± 0.13
RAGVCEYNEDSRLCTPI [RPN13] | 2.29 ± 0.12 | 1.86 ± 0.078 | 1.41 ± 0.2 | 2.84 ± 0.072
RALRRALTKFEASQVTE [RPL35A] | – | 2.56 ± 0.14 | 3.11 ± 0.097 | 3.19 ± 0.1
RANVYVGFLVQLDLTGI [PRP8] | 2.5 ± 0.05 | 2.13 ± 0.052 | 2.21 ± 0.057 | 2.45 ± 0.05
RAQRVAEKRDALLKEDA [RPL19A] | 3.2 ± 0.17 | 3.04 ± 0.13 | 2.89 ± 0.14 | 3.47 ± 0.091
RARVTKDLVEIKKEEGK [RPN5] | – | 3.42 ± 0.18 | 3.33 ± 0.17 | 3.59 ± 0.077
RASKLKIQASDVNIIGK [RPO31] | – | 3.04 ± 0.17 | 2.7 ± 0.24 | –
RATPATLTELKDALSNS [SRB2] | 3.11 ± 0.12 | 3.11 ± 0.11 | 3.15 ± 0.12 | 3.42 ± 0.1
RAVKEIKKFAKLHMGTD [RPL31A] | 1.7 ± 0.036 | 1.32 ± 0.041 | 1.23 ± 0.061 | 1.58 ± 0.035
RAVKEIKKFAKLHMGTE [RPL31B] | 2.95 ± 0.071 | 2.94 ± 0.13 | 3.08 ± 0.08 | 2.61 ± 0.086
RAVLKSFLESVIRDSVT [HHF1] | 2.62 ± 0.063 | 2.44 ± 0.052 | 1.86 ± 0.063 | 2.12 ± 0.049
RAYMRPLGVILTFVSVD [SCL1] | 1.74 ± 0.049 | 1.81 ± 0.044 | 2.05 ± 0.083 | 2.16 ± 0.04
RCFENLQNKSFKSVLPI [UBP6] | 2.35 ± 0.076 | 1.98 ± 0.09 | 2.05 ± 0.12 | 2.45 ± 0.057
RCKIYFFYLRISKKLQF [PCI8] | 1.29 ± 0.06 | 1.31 ± 0.046 | 1.19 ± 0.093 | 1.35 ± 0.052
RDEIAKNTELSYDFLPL [RPN12] | 1.54 ± 0.062 | 2.23 ± 0.072 | 1.82 ± 0.079 | 2.32 ± 0.05
